# Reference: the supplement of paper PMC9170038
# Test system: MS2 coat protein
# Assay: apparent KD of MS2 coat protein, switch ON state; designed switch direction (-1 OFF switch, 1 ON switch): -1; higher = weaker reporter binding
# Conditions: FMN input: 0 or 200 uM; Eterna round: R93 (includes R88 designs)
# Summary of the method: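 Designed RNA switches were transcribed on-chip from Illumina sequencing clusters. They were then titrated with SNAP-549-labelled MS2 coat protein (twofold steps, 0.7 or 1.5 nM to 3 µM; 0.8–1.5 h to 10–20 min per step) in 100 mM Tris-HCl pH 7.5, 80 mM KCl, 4 mM MgCl2, without or with constant ligand. Apparent KD is the per-design median of normalised cluster binding-curve fits.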
row,Sequence,apparent KD of MS2 coat protein
1,AAUAAGUCAGGAUAUACUAUGUCAGGAGAGAGACUGACUAUGUAGAAGGGACAUGAGGAUCACCCAUGUAAUAA [JR_Exclusion4_Sub5],47.4 nM
2,CUCUAGUAAGGAUAUGGAAGAAAAGAAAAGAAAGAAAAGAACCAGAAGGUACAUGAGGAUCACCCAUGUAAGAA [EteRNA is fun!],48.9 nM
3,AAGACUAGAGGAUAUACAUGAGGAUCACCCAUGUAACUGUCAGGAGACUGACGGAGAAGUAGAAGGCUAGUCAA [Mat - Exclusion 3 - JL mod - D84],15.8 nM
4,GGUUGGCGAGGAUAUACAUGAGGAUCACCCAUGUGAGAGAUAAAAGUGAGAAAGAAAAGUAGAAGGCGCUGACG [salish99-ex3-45],29.2 nM
5,AUAAAACAUGAGGAUCACCCAUGUGAGGAUAUAGGAAACAAACAAACAAACAAACAAACUAGAAGGCACAAUAA [Amethyst 10],13 nM
6,AAUAAACAUGAGGAUCACCCAUGUAAGGAUAUGCGAACAAUAAGAAGACAAUAAUAAAGCAGAAGGUACAAGAG [Ex1 sub 1],27 nM
7,AAUAAACAUGAGGAUCACCCAUGUCAGGAUAUGCACAAACAAACAAACAAACAAGCUAGCAGAAGGGACACUAC [Amethyst 87],23.1 nM
8,AGGGAGUGAGGAUAUGCGAAAUAAAAAGAAGGAAAAAAAGAGCAGAAGGCACAUGAGGAUCACCCAUGUGAGAA [milkweed 11],22.6 nM
9,GGAAAGUGAGGAUAUGCAUAACAAAUACAAAGAGAAACAAAGCAGAAGGCACAUGAGGAUCACCCAUGUAAACA [Exclusion 4 Float],27.3 nM
10,AAGAAACAUGAGGAUCACCCAUGUGAGGAUAUUGAAAAGAAAAGAAAAGAAAGAAGAACAAGAAGGCACAAAGG [Merenhor],39.4 nM
11,AUAAAUCGAGGAUAUACAUGAGGAUCACCCAUGUAAAUAAAUAAAUAAAACUCCACAAGUAGAAGGCGAAAUAA [JR_Exc003_Sub020],23.8 nM
12,AGCUAGUCAGGAUAUACGAACAUGUCAAAAGACGUGAAGGAACAUGAGGAUCACCCAUGUAGAAGGGACUAGCA [Diamond 19],19.3 nM
13,AUCUACCUAGGAUAUACAUGAGGAUCACCCAUGUACAGUUUCAACUAGGGAUACUCACGUAGAAGGAGGUAGAU [JR_Exc003_Sub1210],34.8 nM
14,ACCAGUACAGGAUAUACAUGAGGAUCACCCAUGUGAGAAUUAAGUGGCGUACCACAAAGUAGAAGGGUACUGGA [Mat - Exclusion 3 - JL mod - D11],43.3 nM
15,AGUGAGUCAGGAUAUGCGUGAAGAAUAAAAGAAAUAACAACGCAGAAGGGACAUGAGGAUCACCCAUGUACACA [May 56],23.5 nM
16,AGAAAGGCAGGAUAUACAUGAGGAUCACCCAUGUUAAGAGUGACGGAAACGUCACGAAGUAGAAGGGCCAAGAA [The song I sing],20.4 nM
17,CCUGUGUGAGGAUAUGGUGUAAAAAAAAAAAAAUAGCUCCUCCAGAAGGCACAUGAGGAUCACCCAUGUCGUGG [Jolly's Folly 18 - Jieux - Exclusion 4],32.9 nM
18,GAAAAACAUGAGGAUCACCCAUGUCAGGAUAUGUAGAAAAAGAAAAAAAGAAAAGAAAACAGAAGGGACAAAAG [Mat - Same state - Mayanna Mod - D105],32.6 nM
19,AAGAGUACAGGAUAUAUAUGAAAAGAGUCGAAAGACUCAAAACAUGAGGAUCACCCAUGUAGAAGGGUACUCAA [Hyphema Seclusion Mod 62% 1],36.8 nM
20,AAAAAACAUGAGGAUCACCCAUGUAAGGAUAUGCUAGGAAAAAGAAAAAUAAAAACUAGCAGAAGGUAUAUGAA [JL wbt mod 12],24.5 nM
21,AAGAAAGCAGGAUAUACAUGAGGAUCACCCAUGUAAAAGAAAGAAGGGAAAGAGAAAAGUAGAAGGGCUAAGAA [Wehemibre Necho II],20.9 nM
22,UCCUUACAUGAGGAUCACCCAUGUUAGGAUAUCUCGCUUGCGCAAUCACAGCGCAAGCAGAGAAGGGACGCGGG [Ledige],22.8 nM
23,ACUUAGACAGGAUAUACGUGAGUGGAAAAAGUGUAUCCACUACAUGAGGAUCACCCAUGUAGAAGGGUCUAAGA [Ex2 Design 182: Random 7],18.6 nM

row,Sequence,apparent KD of MS2 coat protein
1,AAAACUGGAGGAUAUACAUGAGGAUCACCCAUGUGUGGAUGAGCUGUGUCGGCGUCAAGUAGAAGGCCACAAAA [Gilly Gone Silly 36 - Jieux - Exclusion 3],36.7 nM
2,AAAACGGUAGGAUAUACGAUUUGGUACUAGACCGAGGAACCACAUGAGGAUCACCCAUGUAGAAGGACCAAAAA [EX2 Malc#19],13 nM
3,AGCUAGUGAGGAUAUACGAACAAGUAAAAGGACUGUAAGGGACAUGAGGAUCACCCAUGUAGAAGGCACUAGCA [Diamond 60],29.6 nM
4,AUAAUGAGAGGAUAUACAUGAGGAUCACCCAUGUAAUUAAAAAGGAGAGAAACAAUACGUAGAAGGCUCAUUUA [JR_Exc003+Sub601],21.6 nM
5,UCCUCACAUGAGGAUCACCCAUGUCAGGAUAUCUCACAGCGAAAGAAUAAAGGCUGCAAGAGAAGGGACACAAA [Raisa],22.7 nM
6,CACGUACAUGAGGAUCACCCAUGUUAGGAUAUGCCGAAAAAAAAAAAAAAAAAAAUCAGCAGAAGGAACGAAAC [Bilbo Confounded 19 - Jieux - Exclusion 1],40.2 nM
7,AAAAAACAUGAGGAUCACCCAUGUAAGGAUAUGUAAAAUAAAAGAAAAAUAAAGAAAAGCAGAAGGUACAUGUA [JL wbt mod 16],40.4 nM
8,AAAAAGGCAGGAUAUACAAAAAAGAGAAGAGAGGAGGAGGGACAUGAGGAUCACCCAUGUAGAAGGGCCAAAAA [Karl Gunnar Myrdal],31.5 nM
9,AUAAAGACAGGAUAUACAUGAGGAUCACCCAUGUAAAAAAAAAAAAGUUCCUCAAAAAGUAGAAGGGUCAAUAA [JR_Exc003_Sub014],28.4 nM
10,CAAAGGUGAGGAUAUACAGGAAUAUGACGAAAGUCAUAAAAACAUGAGGAUCACCCAUGUAGAAGGCACCACAA [E2 64% 3],37.4 nM
11,AACAGUACAGGAUAUACAUGAGGAUCACCCAUGUGAGAGAAAUAAAACAAAAAUAAAAGUAGAAGGGUACUGGA [Moding Maslow revisited (73) 22],41.7 nM
12,UAAAGACAUGAGGAUCACCCAUGUGAGGAUAUCGGAGACAACAGAACAUCAAGUACAAUGAGAAGGCACAGAAA [JR_Exc001_Sub018],40.6 nM
13,AAAAAGUUAGGAUAUACAUGAGGAUCACCCAUGUACAUAUAUGGAGAAUAUAGCAGUAGUAGAAGGGACAAAAA [EX2 Malc#13],26.9 nM
14,AGGAUGUCAGGAUAUGCGUAAAGAAUAAAACAAAUAACAACGCAGAAGGGACAUGAGGAUCACCCAUGUUAAGA [May 45],42.3 nM
15,CCCAUGUCAGGAUAUCAGUAGUAAAAAAAAAAAAUUACUACUGAGAAGGGACAUGAGGAUCACCCAUGUCAAAA [EX4 315: Super Stable 15],80.2 nM
16,AAAAACCUAGGAUAUACAUGAGGAUCACCCAUGUAAAGAAAAAAAAAGGGAAAAAAAAGUAGAAGGAGGAAGAA [JR_Exc003_Sub1201],16.6 nM
17,AAAAAAAAAGGAUAUAAAACAGAGGAUAUACAUAAAUAAAAACAUGAGGAUCACCCAUGUAGAAGGCUGAAAAA [Meechl Ex2 R2 m0],18.7 nM
18,AAAAAGUGAGGAUAUGUCAAAAGUCACAAAAGUGACAAAAGACAGAAGGCACAUGAGGAUCACCCAUGUGAAAG [Mat - Exaclusion 4 - Eli mod - D53],28.9 nM
19,AAGAAGGAAGGAUAUACAUGAGGAUCACCCAUGUAAAAGAAAGAAAAGGGAAAGAAAAGUAGAAGGUCCAAGAA [Djeserkheperure-setpenre Horemheb],30.4 nM
20,AACUGACAUGAGGAUCACCCAUGUCAGGAUAUGACAUCGAGAAAAAAAAAAAUCGUUGUCAGAAGGGACAUGAA [Design 78: Sub-opt T],12.4 nM
21,AAGAACGCAGGAUAUACAUGAGGAUCACCCAUGUAAAAGAAAGAAAAGGGAAAGAAAAGUAGAAGGGCGAAGAA [Aakheperkare Thutmose I],33.9 nM
22,AAAAAGCGAGGAUAUACAUGAGGAUCACCCAUGUCAAAAGGUAAGACCGCAGAAAAAAGUAGAAGGCGCAAAAA [Exclusion3-01],68.1 nM
